± gives the standard error. This sample holds only a part of the variants without activity.
B1: glmS ribozyme (parent)
chain: AUAAAAGCGCCAGAACUACAGAAAUGUAGUUGACGAGGAGGAGGUUUAUCGAAUUUUCGGCGGAUGCCUCCAAA

Tests used:
Settings in all cases: with glucosamine-6-phosphate
[1] = variants of: B1; test: self-cleavage kobs at 160 uM GlcN6P; higher = faster cleavage; RNA array
Procedure, shortened: (§1)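 kcat and KM were obtained from weighted Michaelis–Menten fits across concentrations of kobs values. Those came from one- or two-exponential decay fits to per-tile medians normalised to baseline and to non-cleaving reference variants. The variants were barcoded ribozymes transcribed in situ by E. coli RNA polymerase on sequenced MiSeq chips and tracked through a hybridised Cy3 probe at 37 °C, with 40 μM to 10 mM glucosamine-6-phosphate in HEPES/KCl/Mg(OAc)2 buffer flowed in.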

[2] = variants of: B1; test: self-cleavage kobs at 640 uM GlcN6P; higher = faster cleavage; RNA array
Procedure, shortened: as §1

[3] = variants of: B1; test: self-cleavage kobs at 2500 uM GlcN6P; higher = faster cleavage; RNA array
Procedure, shortened: as §1

[4] = variants of: B1; test: self-cleavage kobs at 10000 uM GlcN6P; higher = faster cleavage; RNA array
Procedure, shortened: as §1

Variant: C16U G29C G44U C67G
- self-cleavage kobs at 160 uM GlcN6P [1]: 0.000224 ± 0.0001 s⁻¹

Variant: G51C G60A U69A
- self-cleavage kobs at 160 uM GlcN6P [1]: < 1e-05 s⁻¹

Variant: U57G U69G
- self-cleavage kobs at 160 uM GlcN6P [1]: 8.11e-05 ± 1.7e-05 s⁻¹
- self-cleavage kobs at 640 uM GlcN6P [2]: 0.000113 ± 2.8e-05 s⁻¹
- self-cleavage kobs at 2500 uM GlcN6P [3]: 4.87e-05 ± 1.6e-05 s⁻¹

Variant: G37U A42U A53G
- self-cleavage kobs at 160 uM GlcN6P [1]: < 1e-05 s⁻¹
- self-cleavage kobs at 2500 uM GlcN6P [3]: < 1e-05 s⁻¹

Variant: U49G G60C
- self-cleavage kobs at 160 uM GlcN6P [1]: < 1e-05 s⁻¹
- self-cleavage kobs at 640 uM GlcN6P [2]: < 1e-05 s⁻¹
- self-cleavage kobs at 2500 uM GlcN6P [3]: < 1e-05 s⁻¹

Variant: G7C C8G A52G
- self-cleavage kobs at 160 uM GlcN6P [1]: < 1e-05 s⁻¹
- self-cleavage kobs at 640 uM GlcN6P [2]: < 1e-05 s⁻¹
- self-cleavage kobs at 2500 uM GlcN6P [3]: < 1e-05 s⁻¹

Variant: G9U G37C
- self-cleavage kobs at 160 uM GlcN6P [1]: < 1e-05 s⁻¹
- self-cleavage kobs at 640 uM GlcN6P [2]: < 1e-05 s⁻¹
- self-cleavage kobs at 2500 uM GlcN6P [3]: < 1e-05 s⁻¹
- self-cleavage kobs at 10000 uM GlcN6P [4]: < 1e-05 s⁻¹

Variant: G32U G60C
- self-cleavage kobs at 160 uM GlcN6P [1]: < 1e-05 s⁻¹
- self-cleavage kobs at 640 uM GlcN6P [2]: < 1e-05 s⁻¹
- self-cleavage kobs at 2500 uM GlcN6P [3]: < 1e-05 s⁻¹

Variant: A33U G38A A39G
- self-cleavage kobs at 160 uM GlcN6P [1]: < 1e-05 s⁻¹
- self-cleavage kobs at 640 uM GlcN6P [2]: < 1e-05 s⁻¹

Variant: G7C C34U
- self-cleavage kobs at 160 uM GlcN6P [1]: < 1e-05 s⁻¹
- self-cleavage kobs at 640 uM GlcN6P [2]: < 1e-05 s⁻¹
- self-cleavage kobs at 2500 uM GlcN6P [3]: < 1e-05 s⁻¹
- self-cleavage kobs at 10000 uM GlcN6P [4]: < 1e-05 s⁻¹

Variant: C16G U47A C50U A53G
- self-cleavage kobs at 160 uM GlcN6P [1]: < 1e-05 s⁻¹

Variant: G35U U69A
- self-cleavage kobs at 160 uM GlcN6P [1]: < 1e-05 s⁻¹
- self-cleavage kobs at 640 uM GlcN6P [2]: < 1e-05 s⁻¹
- self-cleavage kobs at 2500 uM GlcN6P [3]: < 1e-05 s⁻¹

Variant: A36G G40A G44A U46G G51C
- self-cleavage kobs at 160 uM GlcN6P [1]: < 1e-05 s⁻¹
- self-cleavage kobs at 2500 uM GlcN6P [3]: < 1e-05 s⁻¹

Variant: A6G A36G U56A
- self-cleavage kobs at 160 uM GlcN6P [1]: < 1e-05 s⁻¹
- self-cleavage kobs at 640 uM GlcN6P [2]: < 1e-05 s⁻¹
- self-cleavage kobs at 2500 uM GlcN6P [3]: < 1e-05 s⁻¹

Variant: U30C A36G
- self-cleavage kobs at 160 uM GlcN6P [1]: < 1e-05 s⁻¹
- self-cleavage kobs at 10000 uM GlcN6P [4]: < 1e-05 s⁻¹

Variant: A12U U45G U56A
- self-cleavage kobs at 160 uM GlcN6P [1]: 0.000953 ± 0.00021 s⁻¹
- self-cleavage kobs at 640 uM GlcN6P [2]: 0.00298 ± 0.0006 s⁻¹

Variant: A15G A33C C58G
- self-cleavage kobs at 160 uM GlcN6P [1]: < 1e-05 s⁻¹
- self-cleavage kobs at 640 uM GlcN6P [2]: < 1e-05 s⁻¹

Variant: G9U C34U U54A
- self-cleavage kobs at 160 uM GlcN6P [1]: < 1e-05 s⁻¹

Variant: U31C G43U A48U U55A
- self-cleavage kobs at 160 uM GlcN6P [1]: < 1e-05 s⁻¹
- self-cleavage kobs at 640 uM GlcN6P [2]: < 1e-05 s⁻¹
- self-cleavage kobs at 2500 uM GlcN6P [3]: < 1e-05 s⁻¹

Variant: A15C A36U A39G
- self-cleavage kobs at 160 uM GlcN6P [1]: < 1e-05 s⁻¹
- self-cleavage kobs at 640 uM GlcN6P [2]: < 1e-05 s⁻¹
- self-cleavage kobs at 2500 uM GlcN6P [3]: < 1e-05 s⁻¹
- self-cleavage kobs at 10000 uM GlcN6P [4]: < 1e-05 s⁻¹

Variant: A15U C34U C50G
- self-cleavage kobs at 160 uM GlcN6P [1]: 0.000153 ± 3.2e-05 s⁻¹
- self-cleavage kobs at 2500 uM GlcN6P [3]: 0.000132 ± 3.4e-05 s⁻¹

Variant: A36C U47G U69G
- self-cleavage kobs at 160 uM GlcN6P [1]: 0.000151 ± 3.4e-05 s⁻¹
- self-cleavage kobs at 640 uM GlcN6P [2]: 8.37e-05 ± 1.5e-05 s⁻¹
- self-cleavage kobs at 2500 uM GlcN6P [3]: 0.000213 ± 6e-05 s⁻¹

Variant: C10U A42C G63A
- self-cleavage kobs at 160 uM GlcN6P [1]: < 1e-05 s⁻¹
- self-cleavage kobs at 640 uM GlcN6P [2]: < 1e-05 s⁻¹
- self-cleavage kobs at 2500 uM GlcN6P [3]: < 1e-05 s⁻¹

Variant: A48G G66C
- self-cleavage kobs at 160 uM GlcN6P [1]: < 1e-05 s⁻¹
- self-cleavage kobs at 640 uM GlcN6P [2]: < 1e-05 s⁻¹
- self-cleavage kobs at 2500 uM GlcN6P [3]: < 1e-05 s⁻¹
- self-cleavage kobs at 10000 uM GlcN6P [4]: < 1e-05 s⁻¹

Variant: G29C A33C C61G C68U
- self-cleavage kobs at 160 uM GlcN6P [1]: < 1e-05 s⁻¹
- self-cleavage kobs at 640 uM GlcN6P [2]: < 1e-05 s⁻¹
- self-cleavage kobs at 10000 uM GlcN6P [4]: < 1e-05 s⁻¹

Variant: G43U U57A
- self-cleavage kobs at 160 uM GlcN6P [1]: < 1e-05 s⁻¹
- self-cleavage kobs at 2500 uM GlcN6P [3]: < 1e-05 s⁻¹

Variant: G43C C71G
- self-cleavage kobs at 160 uM GlcN6P [1]: < 1e-05 s⁻¹
- self-cleavage kobs at 640 uM GlcN6P [2]: < 1e-05 s⁻¹
- self-cleavage kobs at 2500 uM GlcN6P [3]: < 1e-05 s⁻¹

Variant: C50G U54A U65A
- self-cleavage kobs at 160 uM GlcN6P [1]: 0.00014 ± 3.8e-05 s⁻¹
- self-cleavage kobs at 2500 uM GlcN6P [3]: 5.15e-05 ± 2e-05 s⁻¹
- self-cleavage kobs at 10000 uM GlcN6P [4]: 5.29e-05 ± 1.5e-05 s⁻¹

Variant: G7A G43C C71U
- self-cleavage kobs at 160 uM GlcN6P [1]: < 1e-05 s⁻¹
- self-cleavage kobs at 640 uM GlcN6P [2]: < 1e-05 s⁻¹

Variant: G7C G41C
- self-cleavage kobs at 160 uM GlcN6P [1]: < 1e-05 s⁻¹
- self-cleavage kobs at 640 uM GlcN6P [2]: < 1e-05 s⁻¹
- self-cleavage kobs at 10000 uM GlcN6P [4]: < 1e-05 s⁻¹

Variant: G40U C61G
- self-cleavage kobs at 160 uM GlcN6P [1]: < 1e-05 s⁻¹
- self-cleavage kobs at 640 uM GlcN6P [2]: < 1e-05 s⁻¹
- self-cleavage kobs at 10000 uM GlcN6P [4]: < 1e-05 s⁻¹

Variant: G44C C58A
- self-cleavage kobs at 160 uM GlcN6P [1]: < 1e-05 s⁻¹
- self-cleavage kobs at 640 uM GlcN6P [2]: < 1e-05 s⁻¹
- self-cleavage kobs at 2500 uM GlcN6P [3]: < 1e-05 s⁻¹
- self-cleavage kobs at 10000 uM GlcN6P [4]: < 1e-05 s⁻¹

Variant: A6U C11A
- self-cleavage kobs at 160 uM GlcN6P [1]: < 1e-05 s⁻¹
- self-cleavage kobs at 640 uM GlcN6P [2]: < 1e-05 s⁻¹
- self-cleavage kobs at 2500 uM GlcN6P [3]: < 1e-05 s⁻¹

Variant: G43U U69C C70G
- self-cleavage kobs at 160 uM GlcN6P [1]: < 1e-05 s⁻¹
- self-cleavage kobs at 640 uM GlcN6P [2]: < 1e-05 s⁻¹

Variant: G7A U65C
- self-cleavage kobs at 160 uM GlcN6P [1]: < 1e-05 s⁻¹
- self-cleavage kobs at 640 uM GlcN6P [2]: < 1e-05 s⁻¹
- self-cleavage kobs at 2500 uM GlcN6P [3]: < 1e-05 s⁻¹
- self-cleavage kobs at 10000 uM GlcN6P [4]: < 1e-05 s⁻¹

Variant: G35C G37C U46C G63U
- self-cleavage kobs at 160 uM GlcN6P [1]: < 1e-05 s⁻¹
- self-cleavage kobs at 640 uM GlcN6P [2]: < 1e-05 s⁻¹
- self-cleavage kobs at 2500 uM GlcN6P [3]: < 1e-05 s⁻¹

Variant: G9A A12U A33C G62U
- self-cleavage kobs at 160 uM GlcN6P [1]: < 1e-05 s⁻¹

Variant: C8G C61A C68U
- self-cleavage kobs at 160 uM GlcN6P [1]: < 1e-05 s⁻¹

Variant: C10A A52U C68A
- self-cleavage kobs at 160 uM GlcN6P [1]: 7.21e-05 ± 2.5e-05 s⁻¹

Variant: G37U G51C A52U G63U
- self-cleavage kobs at 160 uM GlcN6P [1]: < 1e-05 s⁻¹

Variant: C8A C34U G40U G41U U45A G62U
- self-cleavage kobs at 160 uM GlcN6P [1]: < 1e-05 s⁻¹

Variant: A6U G38U G60C
- self-cleavage kobs at 160 uM GlcN6P [1]: < 1e-05 s⁻¹

Variant: A6C A36G C50U C67U
- self-cleavage kobs at 160 uM GlcN6P [1]: < 1e-05 s⁻¹
- self-cleavage kobs at 2500 uM GlcN6P [3]: < 1e-05 s⁻¹

Variant: G32U U54G
- self-cleavage kobs at 160 uM GlcN6P [1]: 7.28e-05 ± 2.7e-05 s⁻¹
- self-cleavage kobs at 640 uM GlcN6P [2]: 0.000164 ± 5.1e-05 s⁻¹
- self-cleavage kobs at 2500 uM GlcN6P [3]: 0.000272 ± 6.1e-05 s⁻¹
- self-cleavage kobs at 10000 uM GlcN6P [4]: 0.000903 ± 0.00012 s⁻¹

Variant: A6U A14C G51A
- self-cleavage kobs at 160 uM GlcN6P [1]: < 1e-05 s⁻¹
- self-cleavage kobs at 640 uM GlcN6P [2]: < 1e-05 s⁻¹

Variant: U31C G32C A33U C34A U49A
- self-cleavage kobs at 160 uM GlcN6P [1]: < 1e-05 s⁻¹
- self-cleavage kobs at 2500 uM GlcN6P [3]: < 1e-05 s⁻¹
- self-cleavage kobs at 10000 uM GlcN6P [4]: < 1e-05 s⁻¹

Variant: A6G A14G C16U G32U G35C G41C C50A C71G
- self-cleavage kobs at 160 uM GlcN6P [1]: < 1e-05 s⁻¹
- self-cleavage kobs at 2500 uM GlcN6P [3]: < 1e-05 s⁻¹

Variant: G29A U47G A53G
- self-cleavage kobs at 160 uM GlcN6P [1]: 6.62e-05 ± 2e-05 s⁻¹
- self-cleavage kobs at 640 uM GlcN6P [2]: 0.000173 ± 3.2e-05 s⁻¹
- self-cleavage kobs at 2500 uM GlcN6P [3]: 0.000477 ± 0.00013 s⁻¹

Variant: G29A U30G G35A G38U U46A C71G
- self-cleavage kobs at 160 uM GlcN6P [1]: < 1e-05 s⁻¹

Variant: G7C G37U
- self-cleavage kobs at 160 uM GlcN6P [1]: < 1e-05 s⁻¹
- self-cleavage kobs at 640 uM GlcN6P [2]: < 1e-05 s⁻¹
- self-cleavage kobs at 2500 uM GlcN6P [3]: < 1e-05 s⁻¹

Variant: G9C G38C G63U
- self-cleavage kobs at 160 uM GlcN6P [1]: < 1e-05 s⁻¹
- self-cleavage kobs at 2500 uM GlcN6P [3]: < 1e-05 s⁻¹
